Reference: US20260167720A1 (Amgen, published 2026)

Experiments:
Test in all cases: cell-based or functional assay
[1] = biological target: T1, MSLN (Mesothelin) on HCT116 or GSU cells (UniProt Q13421 37-598, limits assumed)
[2] = biological target: T2, CDH3 (Cadherin-3, P-Cadherin) on HCT116 or GSU cells (UniProt P22223 108-829, limits assumed)
[3] = biological target: T1, MSLN (Mesothelin) on HCT116 or GSU cells; remark: listed apart in the source
[4] = biological target: T2, CDH3 (Cadherin-3, P-Cadherin) on HCT116 …; remark: listed apart in the source

B1: MSLN-CDH3 T-cell engager molecule 3 (example to FIG. 2A) (bispecific antibody)
chain 1: not shown
chain 2: EVQLVESGGGLVQPGGSLKLSCAASGFTFNKYAMNWVRQAPGKGMEWVARIRSKYNNYATYYADAVKDRFTISRDDSKNTLYLQMNNLKTEDTAVYYCVRAGNFGSSYISYFAYWGQGTLVTVSSGGGGQGGGGQGGGGQQTVVTQEPSLTVSPGGTVTITCGSSTGAVTSGNYPNWIQKKPGQAPRGLIGGTKFLAPGTPARFSGSLEGGKAALTLSGVQPEDEAEYYCVLYYSNRWVFGSGTKLTVLGGGGQGGGGQGGGGQDKTHTCPPCPAPELLGGPSVFLFPPKPKDTLMISRTPEVTCVVVDVSHEDPEVKFNWYVDGVEVHNAKTKPCEEQYGSTYRCVSVLTVLHQDWLNGKEYKCKVSNKALPAPIEKTISKAKGQPREPQVYTLPPSRKEMTKNQVSLTCLVKGFYPSDIAVEWESNGQPENNYKTTPPVLKSDGSFFLYSKLTVDKSRWQQGNVFSCSVMHEALHNHYTQKSLSLSPGKGGGGQGGGGQGGGGQEVQLVESGGGLVQPGGSLKLSCAASGFTFNKYAMNWVRQAPGKGMEWVARIRSKYNNYATYYADAVKDRFTISRDDSKNTLYLQMNNLKTEDTAVYYCVRAGNFGSSYISYFAYWGQGTLVTVSSGGGGQGGGGQGGGGQQTVVTQEPSLTVSPGGTVTITCGSSTGAVTSGNYPNWIQKKPGQAPRGLIGGTKFLAPGTPARFSGSLEGGKAALTLSGVQPEDEAEYYCVLYYSNRWVFGSGTKLTVL
In the case of B1, the “EC50 GSU KO CDH3 [pM]; TDCC, CDH3 knocked out, MSLN left” value (“EC50 GSU KO CDH3 [pM]; TDCC” below) [1] is reported as 7.5 pM, the “EC50 GSU WT [pM]; TDCC, cells double positive for CDH3 and MSLN” value (shortened to “EC50 GSU WT [pM]; TDCC”) [1] is reported as 0.073 pM and the “EC50 GSU KO MSLN [pM]; TDCC, MSLN knocked out, CDH3 left” value (“EC50 GSU KO MSLN [pM]; TDCC” below) [2] is reported as 55.3 pM. For the same binder, the “EC50 GSU WT [pM]; TDCC” value [2] was 0.073 pM, the “EC50 HCT116 KO CDH3 [pM]; TDCC, CDH3 knocked out, MSLN left” value (shortened to “EC50 HCT116 KO CDH3 [pM]; TDCC”) [3] was 3.19 pM and the “EC50 HCT116 WT [pM]; TDCC, cells double positive for CDH3 and MSLN” value (“EC50 HCT116 WT [pM]; TDCC” below) [3] was 0.005 pM. The “EC50 HCT116 KO MSLN [pM]; TDCC, MSLN knocked out, CDH3 left” value (“EC50 HCT116 KO MSLN [pM]; TDCC” for short) [4] was 0.38 pM and the “EC50 HCT116 WT [pM]; TDCC” value [4] was 0.005 pM.

B2: MSLN-CDH3 T-cell engager molecule 1 (scFc single chain) (bispecific antibody)
chain: QVQLVQSGAEVKKPGASVKVSCKASGYTFTNYWMNWVRQAPGQCLEWMGNIAYGVAGTNYNQKFQGRVTMTVDTSSSTAYMELSRLRSDDTAVYYCATRYFYVMDYWGQGTLVTVSSGGGGQGGGGQGGGGQEIQMTQSPSSLSASVGDRVTITCRASQDISNYLNWYQQKPGKVPKLLIYYTSRLHSGVPSRFSGSGSGTDFTLTISSLQPEDVATYYCVQYAQFPLTFGCGTKVEIKSGGGGQEVQLVESGGGLVQPGGSLKLSCAASGFTFNKYAMNWVRQAPGKGMEWVARIRSKYNNYATYYADAVKDRFTISRDDSKNTLYLQMNNLKTEDTAVYYCVRAGNFGSSYISYFAYWGQGTLVTVSSGGGGQGGGGQGGGGQQTVVTQEPSLTVSPGGTVTITCGSSTGAVTSGNYPNWIQKKPGQAPRGLIGGTKFLAPGTPARFSGSLEGGKAALTLSGVQPEDEAEYYCVLYYSNRWVFGSGTKLTVLGGGGCPPCPAPELLGGPSVFLFPPKPKDTLMISRTPEVTCVVVDVSHEEPEVKFNWYVDGVEVHNAKTKPCEEQYGSTYRCVSVLTVLHQDWLNGKEYKCKVSNKALPAPIEKTISKAKGQPREPQVYTLPPSREEMTKNQVSLTCLVKGFYPSDIAVEWESNGQPENNYKTTPPVLDSDGSFFLYSKLTVDKSRWQQGNVFSCSVMHEALHNHYTQKSLSLSPGKGGGGQGGGGQGGGGQGGGGQGGGGQGGGGQCPPCPAPELLGGPSVFLFPPKPKDTLMISRTPEVTCVVVDVSHEEPEVKFNWYVDGVEVHNAKTKPCEEQYGSTYRCVSVLTVLHQDWLNGKEYKCKVSNKALPAPIEKTISKAKGQPREPQVYTLPPSREEMTKNQVSLTCLVKGFYPSDIAVEWESNGQPENNYKTTPPVLDSDGSFFLYSKLTVDKSRWQQGNVFSCSVMHEALHNHYTQKSLSLSPGKGGGGQVQLQESGPGLVKPSETLSLTCTVSGGSISSSSYFWGWIRQPPGKCLEWIGNIYYSGSSNYNPSLKSRVTISVDTSKNQFSLKLSSVTAADTAVYYCARLPRGDRDAFDIWGQGTMVTVSSGGGGQGGGGQGGGGQEIVMTQSPSSLSASVGDRVTITCRASQGISNYLAWYQQKPGKVPKLLIYAASTLQSGVPSRFSGSGSGTDFTLTISSLQPEDFATYYCQQSYSTPFTFGCGTKVEIKSGGGGQEVQLVESGGGLVQPGGSLKLSCAASGFTFNKYAMNWVRQAPGKGMEWVARIRSKYNNYATYYADAVKDRFTISRDDSKNTLYLQMNNLKTEDTAVYYCVRAGNFGSSYISYFAYWGQGTLVTVSSGGGGQGGGGQGGGGQQTVVTQEPSLTVSPGGTVTITCGSSTGAVTSGNYPNWIQKKPGQAPRGLIGGTKFLAPGTPARFSGSLEGGKAALTLSGVQPEDEAEYYCVLYYSNRWVFGSGTKLTVL
With B2 the “EC50 GSU KO CDH3 [pM]; TDCC” value [1] was 0.47 pM, the “EC50 GSU WT [pM]; TDCC” value [1] was 0.013 pM and the “EC50 GSU KO MSLN [pM]; TDCC” value [2] was 103 pM. The “EC50 GSU WT [pM]; TDCC” value [2] was 0.013 pM, the “EC50 HCT116 KO CDH3 [pM]; TDCC” value [3] was 1.76 pM and the “EC50 HCT116 WT [pM]; TDCC” value [3] was 0.003 pM. For the same binder, the “EC50 HCT116 KO MSLN [pM]; TDCC” value [4] was 1.08 pM and the “EC50 HCT116 WT [pM]; TDCC” value [4] was 0.003 pM.

B3: MSLN-CDH3 T-cell engager molecule 4 (example to FIG. 2B) (bispecific antibody)
chain 1: not shown
chain 2: EVQLVESGGGLVQPGGSLKLSCAASGFTFNKYAMNWVRQAPGKGMEWVARIRSKYNNYATYYADAVKDRFTISRDDSKNTLYLQMNNLKTEDTAVYYCVRAGNFGSSYISYFAYWGQGTLVTVSSGGGGQGGGGQGGGGQQTVVTQEPSLTVSPGGTVTITCGSSTGAVTSGNYPNWIQKKPGQAPRGLIGGTKFLAPGTPARFSGSLEGGKAALTLSGVQPEDEAEYYCVLYYSNRWVFGSGTKLTVLGGGGQGGGGQGGGGQDKTHTCPPCPAPELLGGPSVFLFPPKPKDTLMISRTPEVTCVVVDVSHEDPEVKFNWYVDGVEVHNAKTKPCEEQYGSTYRCVSVLTVLHQDWLNGKEYKCKVSNKALPAPIEKTISKAKGQPREPQVYTLPPSRKEMTKNQVSLTCLVKGFYPSDIAVEWESNGQPENNYKTTPPVLKSDGSFFLYSKLTVDKSRWQQGNVFSCSVMHEALHNHYTQKSLSLSPGKGGGGQGGGGQGGGGQQVQLQESGPGLVKPSETLSLTCTVSGGSISSSSYFWGWIRQPPGKCLEWIGNIYYSGSSNYNPSLKSRVTISVDTSKNQFSLKLSSVTAADTAVYYCARLPRGDRDAFDIWGQGTMVTVSSGGGGQGGGGQGGGGQEIVMTQSPSSLSASVGDRVTITCRASQGISNYLAWYQQKPGKVPKLLIYAASTLQSGVPSRFSGSGSGTDFTLTISSLQPEDFATYYCQQSYSTPFTFGCGTKVEIK
With B3 the “EC50 GSU KO CDH3 [pM]; TDCC” value [1] was 2.89 pM, the “EC50 GSU WT [pM]; TDCC” value [1] was 0.098 pM and the “EC50 GSU KO MSLN [pM]; TDCC” value [2] was 36.8 pM. The “EC50 GSU WT [pM]; TDCC” value [2] was 0.098 pM, the “EC50 HCT116 KO CDH3 [pM]; TDCC” value [3] was 3.5 pM and the “EC50 HCT116 WT [pM]; TDCC” value [3] was 0.027 pM. For the same binder, the “EC50 HCT116 KO MSLN [pM]; TDCC” value [4] was 0.62 pM and the “EC50 HCT116 WT [pM]; TDCC” value [4] was 0.027 pM.

B4: MSLN-CDH3 T-cell engager molecule 2 (heteroFc multichain) (bispecific antibody)
chain 1: QVQLVQSGAEVKKPGASVKVSCKASGYTFTNYWMNWVRQAPGQCLEWMGNIAYGVAGTNYNQKFQGRVTMTVDTSSSTAYMELSRLRSDDTAVYYCATRYFYVMDYWGQGTLVTVSSGGGGQGGGGQGGGGQEIQMTQSPSSLSASVGDRVTITCRASQDISNYLNWYQQKPGKVPKLLIYYTSRLHSGVPSRFSGSGSGTDFTLTISSLQPEDVATYYCVQYAQFPLTFGCGTKVEIKSGGGGQEVQLVESGGGLVQPGGSLKLSCAASGFTFNKYAMNWVRQAPGKGMEWVARIRSKYNNYATYYADAVKDRFTISRDDSKNTLYLQMNNLKTEDTAVYYCVRAGNFGSSYISYFAYWGQGTLVTVSSGGGGQGGGGQGGGGQQTVVTQEPSLTVSPGGTVTITCGSSTGAVTSGNYPNWIQKKPGQAPRGLIGGTKFLAPGTPARFSGSLEGGKAALTLSGVQPEDEAEYYCVLYYSNRWVFGSGTKLTVLGGGGCPPCPAPELLGGPSVFLFPPKPKDTLMISRTPEVTCVVVDVSHEDPEVKFNWYVDGVEVHNAKTKPCEEQYGSTYRCVSVLTVLHQDWLNGKEYKCKVSNKALPAPIEKTISKAKGQPREPQVYTLPPSREEMTKNQVSLTCLVKGFYPSDIAVEWESNGQPENNYDTTPPVLDSDGSFFLYSDLTVDKSRWQQGNVFSCSVMHEALHNHYTQDSLSLSPGK
chain 2: CPPCPAPELLGGPSVFLFPPKPKDTLMISRTPEVTCVVVDVSHEDPEVKFNWYVDGVEVHNAKTKPCEEQYGSTYRCVSVLTVLHQDWLNGKEYKCKVSNKALPAPIEKTISKAKGQPREPQVYTLPPSRKEMTKNQVSLTCLVKGFYPSDIAVEWESNGQPENNYKTTPPVLKSDGSFFLYSKLTVDKSRWQQGNVFSCSVMHEALHNHYTQKSLSLSPGKGGGGQVQLQESGPGLVKPSETLSLTCTVSGGSISSSSYFWGWIRQPPGKCLEWIGNIYYSGSSNYNPSLKSRVTISVDTSKNQFSLKLSSVTAADTAVYYCARLPRGDRDAFDIWGQGTMVTVSSGGGGQGGGGQGGGGQEIVMTQSPSSLSASVGDRVTITCRASQGISNYLAWYQQKPGKVPKLLIYAASTLQSGVPSRFSGSGSGTDFTLTISSLQPEDFATYYCQQSYSTPFTFGCGTKVEIKSGGGGQEVQLVESGGGLVQPGGSLKLSCAASGFTFNKYAMNWVRQAPGKGMEWVARIRSKYNNYATYYADAVKDRFTISRDDSKNTLYLQMNNLKTEDTAVYYCVRAGNFGSSYISYFAYWGQGTLVTVSSGGGGQGGGGQGGGGQQTVVTQEPSLTVSPGGTVTITCGSSTGAVTSGNYPNWIQKKPGQAPRGLIGGTKFLAPGTPARFSGSLEGGKAALTLSGVQPEDEAEYYCVLYYSNRWVFGSGTKLTVL
With B4 the “EC50 GSU KO CDH3 [pM]; TDCC” value [1] was 2.5 pM, the “EC50 GSU WT [pM]; TDCC” value [1] was 0.039 pM and the “EC50 GSU KO MSLN [pM]; TDCC” value [2] was 349 pM. The “EC50 GSU WT [pM]; TDCC” value [2] was 0.039 pM, the “EC50 HCT116 KO CDH3 [pM]; TDCC” value [3] was 3.48 pM and the “EC50 HCT116 WT [pM]; TDCC” value [3] was 0.013 pM. For the same binder, the “EC50 HCT116 KO MSLN [pM]; TDCC” value [4] was 1.77 pM and the “EC50 HCT116 WT [pM]; TDCC” value [4] was 0.013 pM.
